Results as given in patent US20210187069A1.

Target: wildtype SARM1 (endogenous, in wildtype mouse dorsal root ganglion neurons) (mouse) (UniProt Q6PDS3)
Experiment: cell-based or functional assay

wildtype SARM1 (endogenous, in wildtype mouse dorsal root ganglion neurons) (mouse), sequence (Q6PDS3 28-724 limits assumed): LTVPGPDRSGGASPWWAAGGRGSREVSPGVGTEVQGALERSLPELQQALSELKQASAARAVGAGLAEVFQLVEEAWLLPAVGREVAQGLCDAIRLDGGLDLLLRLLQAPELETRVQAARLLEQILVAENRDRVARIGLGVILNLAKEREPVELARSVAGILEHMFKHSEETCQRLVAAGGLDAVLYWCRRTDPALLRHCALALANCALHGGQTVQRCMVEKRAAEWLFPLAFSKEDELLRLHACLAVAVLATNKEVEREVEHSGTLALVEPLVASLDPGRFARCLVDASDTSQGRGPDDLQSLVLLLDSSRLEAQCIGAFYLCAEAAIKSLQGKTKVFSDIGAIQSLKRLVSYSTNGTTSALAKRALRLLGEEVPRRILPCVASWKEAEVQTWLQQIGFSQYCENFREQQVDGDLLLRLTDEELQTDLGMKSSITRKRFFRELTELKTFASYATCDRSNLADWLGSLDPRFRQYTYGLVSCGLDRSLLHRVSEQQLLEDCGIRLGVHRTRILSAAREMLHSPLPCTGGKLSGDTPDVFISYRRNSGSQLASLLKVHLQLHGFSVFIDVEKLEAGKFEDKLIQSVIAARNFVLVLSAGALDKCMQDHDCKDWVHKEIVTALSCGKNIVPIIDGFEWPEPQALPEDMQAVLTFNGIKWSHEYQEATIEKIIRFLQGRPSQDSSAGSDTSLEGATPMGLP

axon degeneration after axotomy: 24 h
Substance: SARM1 E569K (from UniProt Q6SZW1 28-724)
